According to paper PMC12948210 (2025):

Key:
Experiment in all cases: GST pull-down; 500 mM NaCl; denaturing pull-down (His-DDX21 purified in urea or guanidine)
[1] = biological target: T1, GST-tagged EIF1AX IDR2 fragment (Homo sapiens (Human), UniProt P47813)
T1 chain: DIGDDDEDIDDI

[2] = biological target: T2, GST-tagged EIF1AX IDR1 fragment (Homo sapiens (Human), UniProt P47813)
T2 chain: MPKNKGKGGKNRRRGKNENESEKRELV

[3] = biological target: T3, GST-tagged EIF1AX RBP fragment (Homo sapiens (Human), UniProt P47813)
T3 chain: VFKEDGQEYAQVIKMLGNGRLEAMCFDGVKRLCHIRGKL

binding result [1]: no binding
binding result [2]: no binding
binding result [3]: binds
B1: His-DDX21 (protein)
chain: MPGKLRSDAGLESDTAMKKGETLRKQTEEKEKKEKPKSDKTEEIAEEEETVFPKAKQVKKKAEPSEVDMNSPKSKKAKKKEEPSQNDISPKTKSLRKKKEPIEKKVVSSKTKKVTKNEEPSEEEIDAPKPKKMKKEKEMNGETREKSPKLKNGFPHPEPDCNPSEAASEESNSEIEQEIPVEQKEGAFSNFPISEETIKLLKGRGVTFLFPIQAKTFHHVYSGKDLIAQARTGTGKTFSFAIPLIEKLHGELQDRKRGRAPQVLVLAPTRELANQVSKDFSDITKKLSVACFYGGTPYGGQFERMRNGIDILVGTPGRIKDHIQNGKLDLTKLKHVVLDEVDQMLDMGFADQVEEILSVAYKKDSEDNPQTLLFSATCPHWVFNVAKKYMKSTYEQVDLIGKKTQKTAITVEHLAIKCHWTQRAAVIGDVIRVYSGHQGRTIIFCETKKEAQELSQNSAIKQDAQSLHGDIPQKQREITLKGFRNGSFGVLVATNVAARGLDIPEVDLVIQSSPPKDVESYIHRSGRTGRAGRTGVCICFYQHKEEYQLVQVEQKAGIKFKRIGVPSATEIIKASSKDAIRLLDSVPPTAISHFKQSAEKLIEEKGAVEALAAALAHISGATSVDQRSLINSNVGFVTMILQCSIEMPNISYAWKELKEQLGEEIDSKVKGMVFLKGKLGVCFDVPTASVTEIQEKWHDSRRWQLSVATEQPELEGPREGYGGFRGQREGSRGFRGQRDGNRRFRGQREGSRGPRGQRSGGGNKSNRSQNKGQKRSFSKAFGQ
